B1: VH:VL chains; a variant is named by its letters at X, in order (parent)
chain 1: QVQLVQSGAEVKKPGASVKVSCKASGYTFTDYXMHWVRQAPGQGLEWMGXVNPNXXXTTYNQKFEGRVTMTTDTSTSTAYMELRSLRSDDTAVYYCARXNXLDXWGQGTTVTVSS
chain 2: DIQMTQSPSSLSASVGDRVTITCSVSSSVSSIYLHWYQQKPGKAPKLLIYSTSNLASGVPSRFSGSGSGTDFTLTISSLQPEDFATYYCQVYSGYPLTFGGGTKVEIK

Variants of: B1
Experiment: yeast display scFab, FACS + sequencing
How it was run: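 Heavy-chain CDR mutant scFab yeast surface library, FACS-sorted after labelling with biotinylated ovalbumin (260 μg/mL in PBSB, 3 h, room temperature) or soluble membrane proteins (130 μg/mL, 20 min on ice), plus anti-Myc. Gates collected the top 25% and bottom 10% of binders, and samples from two replicates were deep sequenced. Non-specific binding call: a sequence was positive if found in ≥3 of 4 positive samples (membrane protein and ovalbumin pooled) and no negatives, and negative by the converse rule.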

Variant	non-specific binding call
YKGRGVVV	binds
YKGRGDGY	binds
YKGRGDGD	no binding
VKGRGSVF	no binding
YKGKGYVD	binds
DKGRGSSA	no binding
FKGKGSWD	binds
FKGRGFVV	binds
YKGKGSVA	binds
YKGKGSVS	binds
YKGKGSVV	binds
FKGRGSLY	binds
FKGRGSLS	binds
FKGRGSLA	binds
YKGRDALD	binds
VKGRADAV	no binding
VKGRADAD	no binding
VKGRADAA	no binding
VKGRTSVY	no binding
SKGRGAWV	binds
SKGRGAWD	binds
SKGRSSWS	binds
YKGRGFAY	binds
VKGRGDAA	no binding
DKGRSAGD	no binding

Variant	non-specific binding call
YKGKGDGD	binds
VKGKGAWD	binds
YKGRGSWF	binds
YKGRGSWS	binds
YKGKGSWA	binds
YKGKGSWD	binds
YKGKGDAD	binds
SKGKGSAA	binds
SKGRSSLA	no binding
YKGRGSAF	binds
YKGRGSAY	binds
VKGRGAGS	binds
VKGRGAGY	binds
YKGRGYVA	binds
YKGKGAGS	binds
YKGKGAGF	binds
VKKEDAGD	no binding
YKGKDSVD	no binding
YKGKSAWV	binds
YKGKSAWD	binds
AKGTASGD	binds
SKGRGAVY	binds
DKKEDSAD	no binding
VKGRADGV	no binding
VKGRADGS	no binding

Variant	non-specific binding call
VKGRGVGA	binds
VKGRGVGY	binds
FKGRGFGV	binds
YKGRSASV	no binding
YKGRGFWA	binds
VKGTDAWY	no binding
SKGRADVY	no binding
SKGRSDGA	no binding
SKGRSDGV	no binding
FKGRGAVD	binds
FKGRGAVY	binds
FKGKSSSD	binds
DKGRSVGV	no binding
YKGRGSVD	binds
YKGRGSVY	binds
VKGRASSV	no binding
YKGRAALY	binds
VKGRAFSV	no binding
YKGKGSLA	binds
YKGKGSLY	binds
YKGKGSLF	binds
YKGKGSLD	binds
YKGRASAV	binds
VKGRGFAA	binds
SKGKGSWD	binds

Variant	non-specific binding call
VKGRSFLV	binds
VKGKGDAV	no binding
FKGRGSGY	binds
FKGRGSGV	binds
VKGRSDAS	no binding
VKGKDVGY	binds
VKGRGSSF	no binding
FKGKGVGD	binds
YKGKGAWV	binds
YKGKGAWD	binds
YKGKGAWA	binds
YKGKGAWS	binds
YKGKGAWY	binds
VKGRGVVD	binds
YKGKGFGD	binds
YKGKGFGF	binds
YKGKGFGA	binds
SKGKGAWY	binds
YKGRGYLV	no binding
VKGRASWS	no binding
YKGRDASD	binds
FKGKGAWY	binds
FKGRGSSS	binds
VKGRSDSA	no binding
VKGRADLV	no binding

Variant	non-specific binding call
VKGRADLY	no binding
YKGRGASS	binds
YKGRGASA	binds
YKGRGASD	binds
YKGRGASV	binds
YKGRGAVS	binds
VKGKGSAA	binds
YKGRGSLV	binds
YKGRGSLF	binds
YKGRGSLA	binds
YKGRGSLY	binds
YKGRGDWY	binds
YKGRGVGD	binds
YKGRGVGY	binds
YKGRGVGV	binds
YKGRGVGA	binds
YKGKGSGA	binds
YKGKGSGF	binds
YKGKGSGS	binds
SKGKGSSA	binds
VKGRADVF	no binding
VKGRADVD	no binding
VKGTGFLD	binds
VKGRAYGV	no binding
YKGRGYWY	binds

Variant	non-specific binding call
VKGKGDWV	no binding
SKGRGAGS	binds
FKGRSASY	binds
VKGRGAAY	binds
SKGRGALA	binds
SKGKGAGF	binds
SKGKGAGD	binds
VKGRGSWY	binds
VKGRGSWA	binds
VKGRGSWS	binds
VKGRSDWV	no binding
YKGRGFVY	binds
YKGRAAGS	binds
FKGRGDGS	binds
VKGRASAF	no binding
VKGRASAS	no binding
FKGRDSGS	binds
YKKESDSY	no binding
SKKEDSAD	no binding
YKGRDDVA	no binding
SKGKGVGA	binds
SKGRGSAA	binds
AKGRADVY	no binding
FKGRGAAS	binds
FKGRGAAD	binds

Variant	non-specific binding call
FKGRGAAY	binds
FKGRGAAV	binds
SKGTDDWV	no binding
VKGRASGF	no binding
VKGRASGY	no binding
FKGRGSAA	binds
FKGRGSAD	binds
VKGRGFWY	binds
YKGTDAWY	no binding
YKGKGVGV	binds
YKGRGALA	binds
YKGRGALS	binds
YKGRGALF	binds
YKGRGALY	binds
VKGRGAWY	binds
VKGRGAWA	binds
VKGRAAVA	no binding
VKGRGSGS	binds
SKGRSDVV	no binding
SKGRSDVS	no binding
SKGRSDVY	no binding
SKGRSDVF	no binding
YKGKGALA	binds
YKGKGALD	binds
VKGKGAAF	binds

Variant	non-specific binding call
YKGRGYSY	binds
FKGRGAGS	binds
YKGRDAGD	binds
YKGRSSSS	binds
YKGRGYGF	binds
YKGRGYGA	binds
YKGRGYGD	binds
VKGKSSWS	binds
YKGRGAGY	binds
YKGRGAGF	binds
YKGRSAVY	binds
FKGTDSSD	binds
AKGRAAAS chain 1 D103N	binds
FKGKGAAF	binds
FKGKGAAV	binds
YKGKGSSY	binds
YKGKGSSS	binds
YKGRGFSD	binds
FKGKGAGD	binds
VKGRADWA	no binding
VKGRADWY	no binding
VKGRADWF	no binding
VKGRADWV	no binding
VKGRADWD	no binding
VKGKGDLA	no binding

Variant	non-specific binding call
YKGRDAWD	binds
YKGKGSAA	binds
YKGKGSAV	binds
VKGRGDSF	no binding
VKGRGSLF	binds
VKGKGASA	binds
FKKEGYGD	binds
FKGRGAWV	binds
FKGRGAWS	binds
FKGRGVWV	binds
VKKEDDVV	no binding
FKGRGALA	binds
YKGKGAVA	binds
VKGKGDVY	no binding
VKGRGYGA	binds
FKGKGALD	binds
YKGKGFAA	binds
SKGKGAVA	binds
YKGRSAAA	binds
VKGRSDGV	no binding
YKGRGYAA	binds
YKGRGYAD	binds
YKGRGYAV	binds
AKGKGAAV	binds
YKGRGFGD	binds

Variant	non-specific binding call
DKGTDVGA	binds
VKGRSVGY	binds
FKGKGSGA	binds
YKGRGAAY	binds
YKGRGAAS	binds
YKGRGAAF	binds
FKGKGFGA	binds
FKGKGAVV	binds
FKGKGAVA	binds
SKGRSDAV	no binding
VKGRGSAY	binds
VKGRGSAD	binds
VKGRGSAA	binds
VKGRGASV	binds
AKGRGDGA	no binding
VKGRADSA	no binding
VKGRADSF	no binding
VKGRADSV	no binding
FKGKGSAD	binds
YKGRGDAD	binds
VKGTGVAY	binds
VKGRSDVY	no binding

— the emibetuzumab library of Makowski et al. (2022)
